Measured values taken from paper PMC5374524, “Label-free quantification of calcium-sensor targeting to photoreceptor guanylate cyclase and rhodopsin kinase by backscattering interferometry” (Scientific Reports, 2017).

Tests used:
[1] = target: full-length human photoreceptor guanylate cyclase GC-E (human) (UniProt Q02846); test: backscattering interferometry (BSI); free solution; HEK cell vesicles with full-length human GC-E with 0-10 μM GCAP; titration buffer with saturating 200 μM Ca2+; Mock-HEK vesicles as reference
[2] = target: MBP-KHD: maltose binding protein fused to the juxta-membrane and kinase homology domain of human GC-E (M496-K806) (human) (UniProt Q02846); test: backscattering interferometry (BSI); free solution; myristoylated GCAP 0 to 6 μM with constant 375 nM MBP fusion protein; titration buffer with 200 μM Ca2+; MBP lacking a GC-E fragment as reference
[3] = target: MBP-KHD: maltose binding protein fused to the juxta-membrane and kinase homology domain of human GC-E (M496-K806) (human) (UniProt Q02846); test: ITC; VP-ITC, 25 °C; MBP fusion protein 0.5 μM in the cell, GCAP 10 μM in the syringe; 30 mM Mops/KOH pH 7.2, 60 mM KCl, 4 mM NaCl, 1 mM DTT, 3.5 mM MgCl2, 1 mM GTP, 0.3 mM ATP; injections into MBP subtracted; one binding site model; data not shown
[4] = target: full-length human photoreceptor guanylate cyclase GC-E (human) (UniProt Q02846); test: backscattering interferometry (BSI); free solution; HEK cell vesicles with full-length human GC-E (50 μg/mL total protein before mixing) with 0-10 μM GCAP; 30 mM Mops/KOH pH 7.2, 60 mM KCl, 4 mM NaCl, 1 mM DTT, 3.5 mM MgCl2, 1 mM GTP, 0.3 mM ATP; 1 mM EGTA; Mock-HEK vesicles as reference; apparent KD
[5] = target: T1, myristoylated bovine recoverin (bovine, UniProt P21457 1-202, myristoylated); test: backscattering interferometry (BSI); free solution, label-free; recoverin dilution series with constant 4 μM GST-NRK; 20 mM HEPES/KOH pH 7.5, 100 mM NaCl, 1 mM MgCl2, 200 μM CaCl2; GST alone as reference; one site binding model; conditions: both partners purified
T1 construct: recoverin, bovine, neuronal Ca2+-sensor protein of photoreceptors
T1 sequence (looked up): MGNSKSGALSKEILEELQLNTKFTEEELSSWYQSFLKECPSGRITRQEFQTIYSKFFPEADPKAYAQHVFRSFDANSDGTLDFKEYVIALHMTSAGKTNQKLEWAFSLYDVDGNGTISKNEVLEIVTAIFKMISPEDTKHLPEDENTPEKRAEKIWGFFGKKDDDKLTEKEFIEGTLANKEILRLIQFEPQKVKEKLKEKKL

[6] = target: T2, full-length human photoreceptor guanylate cyclase GC-E (human, UniProt Q02846 52-1103); test: backscattering interferometry (BSI); free solution; HEK cell vesicles with full-length human GC-E with 0-10 μM GCAP; titration buffer with saturating 200 μM Ca2+; Mock-HEK vesicles as reference; conditions: one partner purified
T2 construct: also called guanylate cyclase 1; guanylate cyclase type 1
T2 sequence (looked up): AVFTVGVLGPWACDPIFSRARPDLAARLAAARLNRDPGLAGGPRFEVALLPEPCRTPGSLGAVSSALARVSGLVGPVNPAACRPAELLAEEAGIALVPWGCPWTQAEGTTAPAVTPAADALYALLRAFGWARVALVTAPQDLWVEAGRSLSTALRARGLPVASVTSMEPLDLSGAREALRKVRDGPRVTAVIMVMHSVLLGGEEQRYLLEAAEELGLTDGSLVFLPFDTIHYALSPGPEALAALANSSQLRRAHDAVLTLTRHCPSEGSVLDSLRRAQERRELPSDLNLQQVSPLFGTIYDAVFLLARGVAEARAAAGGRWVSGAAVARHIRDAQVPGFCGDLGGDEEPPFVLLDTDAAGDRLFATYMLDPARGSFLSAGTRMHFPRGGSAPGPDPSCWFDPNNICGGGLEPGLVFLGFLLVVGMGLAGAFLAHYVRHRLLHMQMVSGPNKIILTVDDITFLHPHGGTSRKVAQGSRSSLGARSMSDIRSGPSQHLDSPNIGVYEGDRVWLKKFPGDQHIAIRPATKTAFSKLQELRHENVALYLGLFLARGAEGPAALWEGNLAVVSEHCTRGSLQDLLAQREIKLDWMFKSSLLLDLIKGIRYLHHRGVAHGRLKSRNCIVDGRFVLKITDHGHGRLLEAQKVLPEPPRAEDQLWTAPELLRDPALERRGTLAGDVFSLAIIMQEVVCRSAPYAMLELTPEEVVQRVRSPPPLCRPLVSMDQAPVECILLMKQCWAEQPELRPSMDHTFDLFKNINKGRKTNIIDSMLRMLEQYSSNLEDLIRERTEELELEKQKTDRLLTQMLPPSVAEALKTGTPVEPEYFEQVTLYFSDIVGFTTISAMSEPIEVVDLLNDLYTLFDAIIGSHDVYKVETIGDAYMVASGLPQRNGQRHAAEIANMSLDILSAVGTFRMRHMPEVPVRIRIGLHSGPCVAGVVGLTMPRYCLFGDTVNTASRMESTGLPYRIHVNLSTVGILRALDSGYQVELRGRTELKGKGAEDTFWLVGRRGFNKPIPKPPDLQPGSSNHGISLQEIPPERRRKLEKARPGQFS

[7] = target: T2, full-length human photoreceptor …; test: backscattering interferometry (BSI); free solution; HEK cell vesicles with full-length human GC-E (50 μg/mL total protein before mixing) with 0-10 μM GCAP; 30 mM Mops/KOH pH 7.2, 60 mM KCl, 4 mM NaCl, 1 mM DTT, 3.5 mM MgCl2, 1 mM GTP, 0.3 mM ATP; 1 mM EGTA; Mock-HEK vesicles as reference; apparent KD; conditions: one partner purified

Molecule: guanylate cyclase-activating protein 1 (GCAP1), myristoylated (from UniProt P46065 1-205) (natural protein)
- Kd [1]: 505 nM
- Kd [2]: 841 nM
- Kd [3]: 580 nM
- stoichiometry N [3]: 0.9
- Kd [4]: 663 nM

B1: GST fusion protein containing the N-terminal 25 amino acids of bovine GRK1 (domain or fragment, UniProt P28327 1-25, looked up)
chain: MDFGSLETVVANSAFIAARGSFDAS
notes: rhodopsin kinase GRK1, bovine, the N-terminal 25 amino acids; also called NRK; N-terminal GRK1 fragment
- Kd [5]: 4720 nM

B2: guanylate cyclase-activating protein 2 (GCAP2), myristoylated (natural protein, UniProt P51177 1-204, looked up)
chain: MGQQFSWEEAEENGAVGAADAAQLQEWYKKFLEECPSGTLFMHEFKRFFKVPDNEEATQYVEAMFRAFDTNGDNTIDFLEYVAALNLVLRGTLEHKLKWTFKIYDKDRNGCIDRQELLDIVESIYKLKKACSVEVEAEQQGKLLTPEEVVDRIFLLVDENGDGQLSLNEFVEGARRDKWVMKMLQMDLNPSSWISQQRRKSAMF
modifications: myristoylated
- Kd [6]: 418 ± 135 nM
- Kd [7]: 231 nM
